Tested on: Cc1cc(=O)oc2cc(NC(=O)[C@H](Cc3ccccc3)NC(=O)[C@@H]3CCCN3C(=O)[C@H](C)NC(=O)[C@H](C)NC(=O)CCC(=O)O)ccc12
Experiment: purified protein, by the assay type
Conditions: other: mean of six independent experiments, pH 7.8, 30°C
Procedure: In short, a 1 nM solution of α-chymotrypsin was mixed with various concentrations of the substrate Suc-Ala-Ala-Pro-Phe-AMC. All the solutions were prepared in 144 mM Tris–HCl, pH 7.8. Substrate hydrolysis was monitored at 30°C on an automated Tecan Safire^2 microplate reader (Tecan, Mannedorf/Zürich, Switzerland). The initial rates of the reactions (ΔF/Δt) were measured immediately after the addition of the substrate (within 200 s) and plotted versus substrate concentration with nonlinear regression to fit a Michaelis-Menten plot. The curve fit and kinetic parameters (Km and v max) were calculated using GraphPad PRISM version 5.0 software (GraphPad Software, Inc., CA, USA). […] The initial velocities of the hydrolysis reactions were measured under the same conditions as described for the determination of Km. 50 µl of α-chymotrypsin solution was added to 50 µl of each inhibitor solution (prepared in 144 mM Tris–HCl, pH 7.8; final concentration 1 nM) and incubated at 30°C for 15 min. The reaction was initiated with the addition of 100 µl of substrate. […] The Ki values were determined as mean values of all measurements.

In the case of α-chymotrypsin (Bos taurus), the Km is reported as 66 ± 9 µM.
